Experimental data taken from US10766960 (dated 2020).

T1: FcgRIIa H (human, UniProt P12318)
T1 chain: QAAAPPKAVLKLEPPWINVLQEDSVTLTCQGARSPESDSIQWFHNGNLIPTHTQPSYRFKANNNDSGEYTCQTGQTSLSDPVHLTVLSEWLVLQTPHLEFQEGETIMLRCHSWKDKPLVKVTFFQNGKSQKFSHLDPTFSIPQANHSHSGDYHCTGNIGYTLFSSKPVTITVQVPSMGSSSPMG

T2: FcgRIIb (human, UniProt P31994)
T2 chain: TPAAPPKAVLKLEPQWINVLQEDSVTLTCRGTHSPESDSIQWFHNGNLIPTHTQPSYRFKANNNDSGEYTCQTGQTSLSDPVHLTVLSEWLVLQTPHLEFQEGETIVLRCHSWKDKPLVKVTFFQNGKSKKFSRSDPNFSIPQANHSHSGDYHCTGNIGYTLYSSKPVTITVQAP

T3: FcgRIa (human, UniProt P12314)
T3 chain: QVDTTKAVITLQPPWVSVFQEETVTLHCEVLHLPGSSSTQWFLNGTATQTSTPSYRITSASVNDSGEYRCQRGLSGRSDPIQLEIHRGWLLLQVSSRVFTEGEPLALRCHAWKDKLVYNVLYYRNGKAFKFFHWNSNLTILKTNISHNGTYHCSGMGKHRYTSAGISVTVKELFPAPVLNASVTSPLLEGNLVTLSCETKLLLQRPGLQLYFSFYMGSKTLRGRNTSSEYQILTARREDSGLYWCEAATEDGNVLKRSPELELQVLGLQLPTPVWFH

T4: FcgRIIa R (human, UniProt P12318)
T4 chain: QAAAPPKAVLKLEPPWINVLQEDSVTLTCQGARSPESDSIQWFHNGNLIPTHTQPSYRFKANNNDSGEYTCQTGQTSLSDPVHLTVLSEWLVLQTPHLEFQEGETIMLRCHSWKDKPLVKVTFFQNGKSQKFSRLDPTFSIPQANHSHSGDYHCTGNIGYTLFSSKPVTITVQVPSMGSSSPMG


Columns and labels:
Experiment in all cases: SPR
FcgRIIa H = target: T1, FcgRIIa H
FcgRIIb = target: T2, FcgRIIb
FcgRIIIa F = FcgRIIIa F (human, UniProt P08637)
FcgRIa = target: T3, FcgRIa
FcgRIIIa V = FcgRIIIa V (human, UniProt P08637)
FcgRIIa R = target: T4, FcgRIIa R

Chain of FcgRIIIa V (P08637 17-208 F176V): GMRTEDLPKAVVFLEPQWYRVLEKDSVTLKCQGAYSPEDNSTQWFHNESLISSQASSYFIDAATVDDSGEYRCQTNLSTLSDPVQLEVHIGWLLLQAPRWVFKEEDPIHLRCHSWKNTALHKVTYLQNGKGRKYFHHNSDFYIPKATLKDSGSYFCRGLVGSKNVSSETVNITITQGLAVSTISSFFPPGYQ
Chain of FcgRIIIa F (P08637 17-208): as the sequence (P08637 17-208 F176V) above, with V160F counted along it

Kd (FcgRIIa H) [nM]	Kd (FcgRIIb) [nM]	Kd (FcgRIIIa F) [nM]	Kd (FcgRIa) [nM]	Kd (FcgRIIIa V) [nM]	Kd (FcgRIIa R) [nM]	Binder
200	4200	1.9	0.084	0.52	550	H240-Kn211/H240-Hl076/L73-k0 (antibody) chain 1: QDQLVQSGAEVKKPGASVKVSCKASGFNIKDTYIQWVRQAPGQGLEWMGRIDPLRKQTKYREKFEGRVTITADTSTNTAYMELSSLRSEDTAVYYCVRSGREFDYWGQGTLVTVSSASTKGPSVFPLAPSSKSTSGGTAALGCLVKDYFPEPVTVSWNSGALTSGVHTFPAVLQSSGLYSLSSVVTVPSSSLGTQTYICNVNHKPSNTKVDKKVEPKSCDKTHTCPPCPAPEMQWGPMVFLFPPKPKDTLMISRTPEVTCVVVDVSDEEPEVKFNWYVDGVEVHNAKTKPREEQYNATYRVVSVLTVLHQDWLNGKEYKCKVSNKALPAPIEKTISKAKGQPREPQVCTLPPSRDELTKNQVSLWCLVKGFYPSDIAVEWESNGQPENNYKTTPPVLDSDGSFFLYSKLTVDKSRWQQGNVFSCSVMHEALHNHYTQKSLSLSP chain 2: QDQLVQSGAEVKKPGASVKVSCKASGFNIKDTYIQWVRQAPGQGLEWMGRIDPLRKQTKYREKFEGRVTITADTSTNTAYMELSSLRSEDTAVYYCVRSGREFDYWGQGTLVTVSSASTKGPSVFPLAPSSKSTSGGTAALGCLVKDYFPEPVTVSWNSGALTSGVHTFPAVLQSSGLYSLSSVVTVPSSSLGTQTYICNVNHKPSNTKVDKKVEPKSCDKTHTCPPCPAPELLGGPSVFLFPPKPKDTLMISRTPEVTCVVVDVSHEEPEVKFNWYVDGVEVHNAKTKPREEQYNSTYRVVSVLTVLHQDWLNGKEYKCKVSNDALPMPIEETISKAKGQPREPQVYTLPPSRCELTKNQVSLSCAVKGFYPSDIAVEWESNGQPENNYKTTPPVLDSDGSFFLVSKLTVDKSRWQQGNVFSCSVMHEALHNHYTQKSLSLSP chain 3: DIQMTQSPSSLSASVGDRVTITCRASQDIHKYIAWYQQKPGQAPRLLIQYTSTLQPGVPSRFSGSGSGTDYTFTISSLQPEDIATYYCLQYEQLRTFGGGTKVEIKRTVAAPSVFIFPPSDEQLKSGTASVVCLLNNFYPREAKVQWKVDNALQSGNSQESVTEQDSKDSTYSLSSTLTLSKADYEKHKVYACEVTHQGLSSPVTKSFNRGEC
310	3200	1.8	0.1	0.4	500	H240-Kn208/H240-Hl076/L73-k0 (antibody) chain 1: QDQLVQSGAEVKKPGASVKVSCKASGFNIKDTYIQWVRQAPGQGLEWMGRIDPLRKQTKYREKFEGRVTITADTSTNTAYMELSSLRSEDTAVYYCVRSGREFDYWGQGTLVTVSSASTKGPSVFPLAPSSKSTSGGTAALGCLVKDYFPEPVTVSWNSGALTSGVHTFPAVLQSSGLYSLSSVVTVPSSSLGTQTYICNVNHKPSNTKVDKKVEPKSCDKTHTCPPCPAPEDQWGPMVFLFPPKPKDTLMISRTPEVTCVVVDVSDEEPEVKFNWYVDGVEVHNAKTKPREEQYNATYRVVSVLTVLHQDWLNGKEYKCKVSNKALPAPIEKTISKAKGQPREPQVCTLPPSRDELTKNQVSLWCLVKGFYPSDIAVEWESNGQPENNYKTTPPVLDSDGSFFLYSKLTVDKSRWQQGNVFSCSVMHEALHNHYTQKSLSLSP chain 2: QDQLVQSGAEVKKPGASVKVSCKASGFNIKDTYIQWVRQAPGQGLEWMGRIDPLRKQTKYREKFEGRVTITADTSTNTAYMELSSLRSEDTAVYYCVRSGREFDYWGQGTLVTVSSASTKGPSVFPLAPSSKSTSGGTAALGCLVKDYFPEPVTVSWNSGALTSGVHTFPAVLQSSGLYSLSSVVTVPSSSLGTQTYICNVNHKPSNTKVDKKVEPKSCDKTHTCPPCPAPELLGGPSVFLFPPKPKDTLMISRTPEVTCVVVDVSHEEPEVKFNWYVDGVEVHNAKTKPREEQYNSTYRVVSVLTVLHQDWLNGKEYKCKVSNDALPMPIEETISKAKGQPREPQVYTLPPSRCELTKNQVSLSCAVKGFYPSDIAVEWESNGQPENNYKTTPPVLDSDGSFFLVSKLTVDKSRWQQGNVFSCSVMHEALHNHYTQKSLSLSP chain 3: DIQMTQSPSSLSASVGDRVTITCRASQDIHKYIAWYQQKPGQAPRLLIQYTSTLQPGVPSRFSGSGSGTDYTFTISSLQPEDIATYYCLQYEQLRTFGGGTKVEIKRTVAAPSVFIFPPSDEQLKSGTASVVCLLNNFYPREAKVQWKVDNALQSGNSQESVTEQDSKDSTYSLSSTLTLSKADYEKHKVYACEVTHQGLSSPVTKSFNRGEC
250	6100	2.6	0.089	0.68	1000	H240-Kn215/H240-Hl076/L73-k0 (antibody) chain 1: QDQLVQSGAEVKKPGASVKVSCKASGFNIKDTYIQWVRQAPGQGLEWMGRIDPLRKQTKYREKFEGRVTITADTSTNTAYMELSSLRSEDTAVYYCVRSGREFDYWGQGTLVTVSSASTKGPSVFPLAPSSKSTSGGTAALGCLVKDYFPEPVTVSWNSGALTSGVHTFPAVLQSSGLYSLSSVVTVPSSSLGTQTYICNVNHKPSNTKVDKKVEPKSCDKTHTCPPCPAPEHQWGPMVFLFPPKPKDTLMISRTPEVTCVVVDVSDEEPEVKFNWYVDGVEVHNAKTKPREEQYNATYRVVSVLTVLHQDWLNGKEYKCKVSNKALPAPIEKTISKAKGQPREPQVCTLPPSRDELTKNQVSLWCLVKGFYPSDIAVEWESNGQPENNYKTTPPVLDSDGSFFLYSKLTVDKSRWQQGNVFSCSVMHEALHNHYTQKSLSLSP chain 2: QDQLVQSGAEVKKPGASVKVSCKASGFNIKDTYIQWVRQAPGQGLEWMGRIDPLRKQTKYREKFEGRVTITADTSTNTAYMELSSLRSEDTAVYYCVRSGREFDYWGQGTLVTVSSASTKGPSVFPLAPSSKSTSGGTAALGCLVKDYFPEPVTVSWNSGALTSGVHTFPAVLQSSGLYSLSSVVTVPSSSLGTQTYICNVNHKPSNTKVDKKVEPKSCDKTHTCPPCPAPELLGGPSVFLFPPKPKDTLMISRTPEVTCVVVDVSHEEPEVKFNWYVDGVEVHNAKTKPREEQYNSTYRVVSVLTVLHQDWLNGKEYKCKVSNDALPMPIEETISKAKGQPREPQVYTLPPSRCELTKNQVSLSCAVKGFYPSDIAVEWESNGQPENNYKTTPPVLDSDGSFFLVSKLTVDKSRWQQGNVFSCSVMHEALHNHYTQKSLSLSP chain 3: DIQMTQSPSSLSASVGDRVTITCRASQDIHKYIAWYQQKPGQAPRLLIQYTSTLQPGVPSRFSGSGSGTDYTFTISSLQPEDIATYYCLQYEQLRTFGGGTKVEIKRTVAAPSVFIFPPSDEQLKSGTASVVCLLNNFYPREAKVQWKVDNALQSGNSQESVTEQDSKDSTYSLSSTLTLSKADYEKHKVYACEVTHQGLSSPVTKSFNRGEC
